Assay results as given in patent US20150368327A1 (YOKOHAMA CITY UNIVERSITY, published 2015).
Residue numbers refer to the chain shown, from its start. Values belong to the binder of their own block, whether it stands above or below them.

Target: T1, mouse Sema 3A protein (mouse, UniProt O08665 21-772, limits assumed)
T1 construct: Produced from mouse Sema 3A protein expressing cells; also called Mouse Sema 3A antigen
T1 sequence (looked up): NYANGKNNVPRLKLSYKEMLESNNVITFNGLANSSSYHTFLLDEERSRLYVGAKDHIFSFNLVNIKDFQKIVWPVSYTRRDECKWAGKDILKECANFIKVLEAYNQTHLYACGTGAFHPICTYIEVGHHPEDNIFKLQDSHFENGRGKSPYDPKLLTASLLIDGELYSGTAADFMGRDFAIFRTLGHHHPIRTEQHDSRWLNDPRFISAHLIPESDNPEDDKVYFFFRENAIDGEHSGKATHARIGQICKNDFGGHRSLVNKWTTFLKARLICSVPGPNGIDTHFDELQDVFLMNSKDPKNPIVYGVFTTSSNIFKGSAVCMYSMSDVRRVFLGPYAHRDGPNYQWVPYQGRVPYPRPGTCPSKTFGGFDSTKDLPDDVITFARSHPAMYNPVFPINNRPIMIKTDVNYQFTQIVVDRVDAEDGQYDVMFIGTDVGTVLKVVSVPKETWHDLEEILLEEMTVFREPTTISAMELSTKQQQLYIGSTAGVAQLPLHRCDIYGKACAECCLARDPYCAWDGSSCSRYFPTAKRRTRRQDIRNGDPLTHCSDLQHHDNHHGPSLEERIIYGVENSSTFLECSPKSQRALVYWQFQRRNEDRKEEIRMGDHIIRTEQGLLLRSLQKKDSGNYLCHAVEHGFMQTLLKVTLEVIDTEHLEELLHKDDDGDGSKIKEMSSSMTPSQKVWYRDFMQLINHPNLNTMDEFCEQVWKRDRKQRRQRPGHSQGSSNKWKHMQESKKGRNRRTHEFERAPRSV
Experiment: direct solid phase ELISA screening with mouse Sema 3A as antigen
Procedure: A direct solid phase ELISA was carried out according to the following process. In Day 6 after the step 2-2), 2.5 μg/mL of mouse Sema 3A protein was dispensed into a 384 well Maxisorp (Nunc) by 20 μL each and left to stand overnight. Ovalbumin (OA) and rabbit IgG (rIgG) were immobilized in the plate as negative controls in similar manner in order to examine the specificity of antibodies. On the next day, the content in the plate was removed and 45 μL of blocking solution (PBS buffer containing 1% BSA) was added thereto, followed by incubation at room temperature for one hour. The plate was washed five times with 120μL/well of ELISA washing buffer (PBS containing 0.05 wt % Tween 20), to which were added culture supernatants derived from the colony obtained by selection in the step 2-2) by 25 μL/well and then incubated at room temperature for one hour. The plate was washed five times with 120 μL/well of ELISA washing solution and then to which was added 25 μL of diluent in which a secondary antibody was diluted 2000 times with a blocking buffer and incubated at room temperature for 45 minutes. Anti-chicken IgM-HRP (Bethyl Laboratories, Inc.) was used as a secondary antibody. […] Subsequently, the reaction was quenched with 25 μL of 1N sulfuric acid to determine the absorbance at 450 nm.

- binding result: binds
B1: Anti-Sema 3A avian antibody (clone No. 240-40 strain-derived) (antibody, V domains shown)
VH: AVTLDESGGGLQTPGGALSLVCKASGFTFSSYDMNWVRQAPGKGLEWVAGIYSGSSTYYGAAVKGRATISRDNGQSTLRLQLNNLRAEDTGIYYCAKSAIPVNSAGSIDAWGHGTEVIVSS
VL: ALTQPASVSANPGETVKITCSGGGSYGGSYYYSWHQQKSPGSALVTVIYYNNKRPSDIPSRFSGSLSGSTNTLTITGVRADDEAVYFCGSADTSGTAFGAGTTLTVL
notes: Avian (chicken) IgM

- binding result: binds
B2: Anti-Sema 3A avian antibody (clone No. 255-72 strain-derived) (antibody, V domains shown)
VH: AVTLDESGGGLQTPGGALSLVCKASGFTFSSYEMQWVRQAPGKGLEWVAGIYSGSTWYGAAVKGRATISRDNGQSTVRLQLNNLRAEDTGTYYCAKSGIGFNSAGSIDAWGHGTEVIVSS
VL: B1 VL with T93N, T96S
notes: Avian (chicken) IgM
